In patent publication US20240245793A1 (UNIVERSITY OF COPENHAGEN, published 2024):
No end group written: not given here. OPEG4 = PEG4 linker (Xa = -O-, formula XXVI) joining two peptide copies; NPEG4 = not defined here

B1: compound 27, NPEG4-(KETVV)2 fused to L-Arg9 (Ac-RRRRRRRRR-) (peptide)
peptide: KETVV
chain: Ac-RRRRRRRRR
modifications: not fully specified (N-terminus, C-terminus); also: dimer: two copies bridged at N-termini by NPEG4, Arg9 C-terminus on NPEG4 nitrogen
notes: Branched compound CPP-NPEG4-(P1)(P2), formula (XXVIII); also called formula (XIX)
B2: compound 33, NPEG4-(VETVV)2 fused to L-Arg9 (Ac-RRRRRRRRR-) (peptide)
peptide: VETVV
chain: Ac-RRRRRRRRR
modifications: not fully specified (N-terminus, C-terminus); also: dimer: two copies bridged at N-termini by NPEG4, Arg9 C-terminus on NPEG4 nitrogen
notes: also called formula (XXII)
B3: compound 25, NPEG4-(KETTV)2 fused to L-Arg9 (Ac-RRRRRRRRR-) (peptide)
peptide: KETTV
chain: Ac-RRRRRRRRR
modifications: not fully specified (N-terminus, C-terminus); also: dimer: two copies bridged at N-termini by NPEG4, Arg9 C-terminus on NPEG4 nitrogen
notes: Branched compound CPP-NPEG4-(P1)(P2), formula (XXVIII); also called formula (XVIII)
B4: compound 29, NPEG4-(KETRV)2 fused to L-Arg9 (Ac-RRRRRRRRR-) (peptide)
peptide: KETRV
chain: Ac-RRRRRRRRR
modifications: not fully specified (N-terminus, C-terminus); also: dimer: two copies bridged at N-termini by NPEG4, Arg9 C-terminus on NPEG4 nitrogen
notes: Branched compound CPP-NPEG4-(P1)(P2), formula (XXVIII); also called formula (XX)
B5: compound 31, NPEG4-(ISTDV)2 fused to L-Arg9 (Ac-RRRRRRRRR-) (peptide)
peptide: ISTDV
chain: Ac-RRRRRRRRR
modifications: not fully specified (N-terminus, C-terminus); also: dimer: two copies bridged at N-termini by NPEG4, Arg9 C-terminus on NPEG4 nitrogen
notes: Branched compound CPP-NPEG4-(P1)(P2), formula (XXVIII); also called formula (XXI)
B6: compound 50, NPEG4-(IETDV)2 fused to L-DPV3 (Ac-RKKRRRESRKKRRRES-) (peptide)
peptide: NPEG4-IETDV
chain: Ac-RKKRRRESRKKRRRES-NPEG4
modifications: reading uncertain; also: two IETDV copies joined at their N-termini by the NPEG4 linker, CPP C-terminus linked to the NPEG4 nitrogen, printed as NPEG4-(IETDV)2 fused to L-DPV3 (Ac-RKKRRRESRKKRRRES-)
notes: Branched compound CPP-NPEG4-(P1)(P2), formula (XXVIII)
B7: compound 52, NPEG4-(IETDV)2 fused to L-pVEC (Ac-LLIILRRRIRKQAHAHSK-) (peptide)
peptide: NPEG4-IETDV
chain: Ac-LLIILRRRIRKQAHAHSK-NPEG4
modifications: reading uncertain; also: two IETDV copies joined at their N-termini by the NPEG4 linker, CPP C-terminus linked to the NPEG4 nitrogen, printed as NPEG4-(IETDV)2 fused to L-pVEC (Ac-LLIILRRRIRKQAHAHSK-)
notes: as for B6
B8: compound 4, OPEG4-(KETVV)2 (peptide)
peptide: OPEG4-KETVV
modifications: also: dimer: two copies bridged at N-termini by OPEG4
notes: Dimer of formula (XXXI), P1 = P2, no CPP
B9: compound 5, OPEG4-(KETRV)2 (peptide)
peptide: OPEG4-KETRV
modifications: also: dimer: two KETRV copies joined at their N-termini by the OPEG4 linker
notes: Dimer of formula (XXXII), P1 = P2, no CPP
B10: compound 2, OPEG4-(KETLV)2 (peptide)
peptide: OPEG4-KETLV
modifications: also: dimer: two copies bridged at N-termini by OPEG4
notes: Dimer of formula (XXIX), P1 = P2, no CPP
B11: compound 7, OPEG4-(VETVV)2 (peptide)
peptide: OPEG4-VETVV
modifications: also: dimer: two VETVV copies joined at their N-termini by the OPEG4 linker
notes: Dimer of formula (XXXIV), P1 = P2, no CPP
B12: compound 6, OPEG4-(ISTDV)2 (peptide)
peptide: OPEG4-ISTDV
modifications: also: dimer: two ISTDV copies joined at their N-termini by the OPEG4 linker
notes: Dimer of formula (XXXIII), P1 = P2, no CPP
B13: compound 67, NPEG4-(KETLV)2 fused to L-Arg7 (Ac-RRRRRRR-) (peptide)
peptide: NPEG4-KETLV
chain: Ac-RRRRRRR-NPEG4
modifications: reading uncertain; also: two KETLV copies joined at their N-termini by the NPEG4 linker, CPP C-terminus linked to the NPEG4 nitrogen, printed as NPEG4-(KETLV)2 fused to L-Arg7 (Ac-RRRRRRR-)
notes: as for B6
B14: compound 73, NPEG4-(KETLV)2 fused to L-Arg4 (Ac-RRRR-) (peptide)
peptide: NPEG4-KETLV
chain: Ac-RRRR-NPEG4
modifications: reading uncertain; also: two KETLV copies joined at their N-termini by the NPEG4 linker, CPP C-terminus linked to the NPEG4 nitrogen, printed as NPEG4-(KETLV)2 fused to L-Arg4 (Ac-RRRR-)
B15: compound 71, NPEG4-(KETLV)2 fused to L-Arg5 (Ac-RRRRR-) (peptide)
peptide: NPEG4-KETLV
chain: Ac-RRRRR-NPEG4
modifications: reading uncertain; also: two KETLV copies joined at their N-termini by the NPEG4 linker, CPP C-terminus linked to the NPEG4 nitrogen, printed as NPEG4-(KETLV)2 fused to L-Arg5 (Ac-RRRRR-)
notes: as for B6

Each binder was assayed against T1, PDZ1-2 of PSD-95 (postsynaptic density protein-95) (UniProt P78352 61-249, limits assumed) (assay: FP competition against fluorescent dimeric probe, Ki from IC50).
T1 construct: domain: PDZ1-2; also called PSD-95 PDZ1-2; PSD-95 PDZ12
T1 sequence (P78352 61-249 limits assumed): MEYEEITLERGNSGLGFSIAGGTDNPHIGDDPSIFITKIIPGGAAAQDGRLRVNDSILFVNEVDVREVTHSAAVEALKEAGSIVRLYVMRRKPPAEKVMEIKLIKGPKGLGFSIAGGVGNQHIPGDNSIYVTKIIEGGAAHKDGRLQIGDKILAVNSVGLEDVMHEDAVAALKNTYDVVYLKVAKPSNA

Q: B1 was tested. Which Ki did it give?
A: Its Ki is 6.3 nM.

Q: B2 was tested. Which Ki did it give?
A: Its Ki is 19.9 nM.

Q: For B3, which Ki is on record?
A: Its Ki is 5.6 nM.

Q: B4 was tested. Which Ki did it give?
A: The Ki was 10.1 nM.

Q: B5 was tested. Which Ki did it give?
A: The Ki was 62.3 nM.

Target: T1, PDZ1-2 of PSD-95 (postsynaptic density …)
Test: as above
Remark: another data set of the same source

Q: How did the Ki turn out when B6 was run?
A: The Ki was 16.6 nM.

Q: Which Ki does the source give for B7 here?
A: Its Ki is 13.3 nM.

Target: T1, PDZ1-2 of PSD-95 (postsynaptic density …)
Test: as above
Remark: another data set of the same source

Q: B8 was tested. Which Ki did it give?
A: Its Ki is 15.8 nM.

Q: With B9 as the binder, how does the Ki read?
A: The Ki was 53.2 nM.

Q: For B10, which Ki is on record?
A: Its Ki is 11.1 nM.

Q: With B11 as the binder, how does the Ki read?
A: The Ki was 17 nM.

Q: How did the Ki turn out when B12 was run?
A: The Ki was 53.1 nM.

Target: T1, PDZ1-2 of PSD-95 (postsynaptic density …)
Test: as above
Remark: another data set of the same source

Q: B13 was tested. Which Ki did it give?
A: Its Ki is 5.8 nM.

Q: For B14, which Ki is on record?
A: Its Ki is 11.1 nM.

Q: Which Ki does the source give for B15 here?
A: Its Ki is 10.9 nM.
